Measurements reported in a protein production outcome set (Wang et al. 2014).

Assay: label from the status in PepcDB records
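Note: failed if final PepcDB status was selected cloned or expressed and not failed if soluble or beyond.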

Row | Sequence | protein production
1 | MLITISDIAWGIALSIWVAIVVLYISKLISKKFGAYVTRKAIHMLGGGIVAVLSPFVFNSPLVPIITSYLIMAYLITIRVLRKEMSWFMDKENLGEVFFAFSFGTVLLVMFILDPNYWTSTDLIYVAVLPLIFMSFGDGITGIIRNFVYKRRVKGLWGSMGMLIFCATVGYFVLNIPGLIAGILATVAELLPYIDDNISVPFLSFLFLYLFVRVL | failed
2 | MLITVYCVRRDLSEVTFSLQVSPDFELRNFKVLCEAESRVPVEEIQIIHMERLLIEDHCSLGSYGLKDGDIVVLLQKDNVGPRAPGRAPNQPRVD | failed
3 | MLKAFRKNQHPVAIPSTLPDGSAWPRISIVTPSYNNAKYIEETIISVLEQGYPDVEHIIVDGASKDGTAAILDRYRGHVARIIQEPDTGQSNAINKGMRLATGEIVTWLNSDDLLAPGALAAVAMAFHMSGADMVAGGCQLYRNGGYLGTHLTSCADGTLPAEEISDLYGGWQTGKFFYQPEVMFTRDLWQRAGGQVREDLHYCMDVEMWLRFASCGARLHVIGAPVAMFRLHEEQKTNNPDASPDEYIPVANAWRTTHGLPPITRTTLPPPPPPLKVAFVNDIGFQYGAGIAHQRLFTAVSSAGHTVRGWATGFQSPRDVFEATAARIISEIEAFEPDVVVCGNLHCTIADSDMLVRLTDRWPTCFCLHDLWLLTGHCPHPGFLDCVRHLAGCDHTCPSPDTYPTIAAGDIRKAWDAKREVMARDTFLALANSNWTRAQHDGCTTPGHEARLLRLGCDESIFHPGDRLEARRQLGLDMDAFVVLMPMVDFSSPFKGSVEGLEALSGAGLENLQVICFGVVEQEMIARFPILTALGYLHDPEAVATAYRAADVVVSFSHAETFGQTLMEAACCGIPSLAYRCTGLPDAVVDGVSGFLVDETPDALITRLHQLHADANLRASLGTWAALYARNSRCLQAEYHSFHTNLEEAGLLAPGRLGKNIFFAHTEAHEAEPSIPVSDPRPGSAFKNWLRRELPTPVWMALRRVYRGTKSRLGMHP | failed
4 | MLKAYRYRIYPTKAQEEFFEKAFGCCRFVWNKMLEEKLEALKQGKKVPRITPARYKKEYPFLREVDSLALANVQMKQEKAFKDFFKNPKHFGIPKFKRKKDKQSYTTNNQQTKSGNETIRVDFEKGLLYLPKVKSGIKAVFHREFEGKIKSATVVKTKAGRYYVSILVDVQDPRNKEVNRIFENEITKRENFICGIDTGLISFVTIANDTGISKIEYPKYLIKAEKRLKRLQRQLSRKKEGSKNWEKARERLAKEYEYVKNSREDFLHKISKTIIDENQVVVVESLNVKGLSRTRLSKHILDSSWSKFLRYLKYKADWYGRKVIEADRSFPSSKMCSRCGYINKELKLKDRVWKCPKCKAVHDRDENAAKNLKNYGIAYIRNQ | failed
5 | MLKDNLKEWFGFDEFKEGQEEIIDSVLHGRHTLGILPTGSGKSLCYQLPTYILEKPTLIISPLISLMDDQVMQMKLKGETHVACVHSGMDEVEKRDNIKRLSKSRFIYLSPEYILQPHNFKYIAHINFGLIVLDEAHCLSEWGYDFRPHYALVGKIIHHFNSATVLALTATAPPQLETDLSHILSLKLNVVQKSMNRENISLQHYNFNDDEGKIEWLLPFLSNSGPTIIYVSSKKRCLELAQMIYDSGYLTGIYHGDLSYQERQTVQQQFFNNDIPVIVATSAFGMGINKKDIRTVIHFHLSSSPSNYLQEIGRAGRDGKQSQAISLFQPDDSFILETLLFTDIITDDDITMFETGNHLPDEKEKILSTLNIQFTFSQLKDIFHQSYQRKRLGYMRMMGYTNLDQCRRKYLLEFFGEHPQSPKQCCDQDSRLEPIQILNRKKVKRKLSFNEKLYNLFET | failed
6 | MLKEIKRRNRMKNKRLIGIIAALAVLVAGSLIYSSMNKSEAQNNKDEKKITKIGVLQFVSHPSLDLIYKGIQDGLAEEGYKDDQVKIDFMNSEGDQSKVATMSKQLVANGNDLVVGIATPAAQGLASATKDLPVIMAAITDPIGANLVKDLKKPGGNVTGVSDHNPAQQQVELIKALTPNVKTIGALYSSSEDNSKTQVEEFKAYAEKAGLTVETFAVPSTNEIASTVTVMTSKVDAIWVPIDNTIASGFPTVVSSNQSSKKPIYPSATAMVEVGGLASVVIDQHDLGVATGKMIVQVLKGAKPADTPVNVFSTGKSVINKKIAQELGITIPESVLKEAGQVIE | not failed
7 | MLKERAGAVSAGLRALDLALVAAAFGLALALRAAVDVPAVPPLLPAGRHLAWLAVALALWPAAAGAAGVYGQYRTRSRREEILRLARAVGLLALGVAAASFLGRDRDLSRLLLLGWNGIALVLLAGSRVAVRTLAHEARRRGHNTRAFAVVGSGPMARAMRQRLLARPEWGFTFAGFVLEEGAPRRGIPGPVLGRVDELAAVLERYVVDLVVFAVPRDRLPGMEAAVAACQEQGVVAKIGLEPFPPRHGRLTVEDLDGIPVLSYASAPQDALPLLAKRAIDVVASALALVVLSPLLAAVALAVRLDSPGPVLFRQRRVGLSGRTFTLYKFRSMRAGAEAEQARLADRNEMDGPVFKLRDDPRVTRVGKVLRRTSLDELPQLWNVLRGEMSLVGPRPPLPDEVRRYERWQRRRLSVKPGLTCTWQVSGRSEVGFGRWMQLDLDYIDRWSLWQDVRIVLRTIPAVLLGRGAR | failed
8 | MLKERLKAFFSADSVFTLIFALFFLTSFKKPLTQVLLIVLMVFLFFRCYFQASLKETFAINHLKTMSFKWLTLAFLGVFLSIFPNMFNMHDSQTFRYNLFALNMSLTYACGALCLLFASCLRIKLNQKILFYSMAVANFINGLLSLVQKIYFNMPRAQGFSTVKEYVVLVSVSILGCYIYALYSHNQKEKLFFTLSVFVGFLVVILSATRSATIAFVITFLILSCFILYAKKSLKPLGYMVVVSLILSALYVGSNALEKKGAIEQSRVQNQSFEEDLKRYAKKDADSSIGWRLERWKEALTVLRLRPFFGMAASEKCQRLEEILSLSKSYRAKDLILCYERYDNQIIHILATRGIIGFLIWLFFLLVIVKIFWSGIKQNSLISFFILMTLAFYLIFGIGFDPFDFFITGSFFVGMIMMAVFLKKDKSAF | failed
9 | MLKFNKVFMYITASALSVSLWTCTSFAQQNKTGVTTASMLNMRENPSTSTKIIDQIPNGTKVDIIETSNGWYKISYNGKTGWVYGSYVKVTETPKLTVTDETILATLNKGSTGNSSTNSSTNNSAVNNSSSQVVDETIQKPAQNAASGENTENTVVKTGIVKASALNVRQGPGTSYSIINQLSNGAKVNIIKEESGWYQIKLANGSTGWVSGTYVNVNTTIASRGGLSENSAPAASNNSDVSGVRQQVVEYAKKFLGVKYVYGGNSPSQGFDCSGFVKYVFSNFGINLERVAASQAKQGTWVSKDQLLPGDLVFFDTDGGHNYINHSGIYIGDGKFIHASSGSGKKSVVISDLTSGFYANTYMTARRVLN | failed
10 | MLKGKVALVTGASRGIGRAIAKRLANDGALVAIHYGNRKEEAEETVYEIQSNGGSAFSIGANLESLHGVEALYSSLDNELQNRTGSTKFDILINNAGIGPGAFIEETTEQFFDRMVSVNAKAPFFIIQQALSRLRDNSRIINISSAATRISLPDFIAYSMTKGAINTMTFTLAKQLGARGITVNAILPGFVKTDMNAELLSDPMMKQYATTISAFNRLGEVEDIADTAAFLASPDSRWVTGQLIDVSGGSCL | not failed
11 | MLKGKYTKIEKVNGVEREYLITDKYGITIGRIFIVDLNKDNRFCMFRMKIYKQGKSINTYIKEILSVFMEFLFKSNDINKVNIIVDEEVSTQPFVELGFAFEGIINKSIIEKNVLKDEFLFGMDYKNYNSDRINVFKLYGKSITLKVLTPEDAENMLQYYIKNKEHLKPFEPEREESFYTFEAQKQMLIENYKQFINGEGTNFGIYKDAKLIGKIQISGTIYGVFKSAIIGYSIDKDYQGKGYMKDALRVAEAYAFNVMNLHRIEASALVDNLRSQNVLIGCGFEKLGINKNYLFINGRWQDHITFYKTNNN | failed
12 | MLKGPLKGCLNMSKKVIVIAGTTGVGKSQLSIQLAQKFNGEVINSDSMQVYKDIPIITNKHPLQEREGIPHHVMNHVDWSEEYYSHRFETECMNAIEDIHRRGKIPIVVGGTHYYLQTLFNKRVDTKSSERKLTRKQLDILESTDPDVIYNTLVKCDPDIATKYHPNDYRRVQRMLEIYYKTGKKPSETFNEQKITLKFDTLFLWLYSKPEPLFQRLDDRVDDMLERGALQEIKQLYEYYSQNKFTPEQCENGVWQVIGFKEFLPWLTGKTDDNTVKLEDCIERMKTRTRQYAKRQVKWIKKMLIPDIKGDIYLLDATDLSQWDTNASQRAIAISNDFISNRPIKQERAPKALEELLSKGETTMKKLDDWTHYTCNVCRNADGKNVVAIGEKYWKIHLGSRRHKSNLKRNTRQADFEKWKINKKETVE | failed
13 | MLKHLDRSKKGKVARSFLQAISKDEAVAPPLRVVQIEGLAVLKIIKHCKEFSPTLVTGQLLGLDVGSVLEVTNCFPFPVRDDDEEIEADGANYQLEMMRCLREVNVDNNTVGWYQSTVLGSYQTVELIETFMNYQENIKRCVCIIYDPSKADLGVLALKALKLSDSFMELYRGGNFTGEKLREKNFSWMDIFEEIPIKVSNSALVSAFMTELETDTPVSQGDYDRLHSSTTPFLENNMEFLIKCMDDLSMEQQKFQYYYRNLSRQQAQQQAWLQKRRTENMARKSAGEEPLPEEDPSNPIFKAIPEPSRLESFLITNQVSNFCGQINGVAGQNFSRLYLTKALHDN | failed
14 | MLKIFSTQLSGYFSRVSQKEEMNIEDSARLLAQALVGEGFIYLHGTNEMEGVVAEALFGAEPMKQAKRLFENGKEVEVTSADRVLLISRFSTDEEVVAIAKKLQADGHSIVGISAIQEGNESLEQYTDVHIDTKLLKGLIPDDEGNRYGFPSLMIALFAYHGIKFTIDEMLNEY | not failed
15 | MLKILKRIVQDVTAASDLKEALGILVQRINTAINAEAVSVYLIDNKNAEYVLIATEGLNKQAEFRVRIALDCGLIGLIGRREEPINIENAPSHPDFYHNPLIGEDHLNAFLGVPIIQHRKLYGVLVVQQLEQRYFDDAEESFLITLAAQLGGIIAHAEATGELAELTQ | failed
16 | MLKKEYLKNPYLVLFAMIILAYVFSVLCRFYWIWWASEFNEYFFNNQLMIISNDGYAFAEGARDMIAGFHQPNDLSYYGSSLSTLTYWLYKITPFSFESIILYMSTFLSSLVVIPIILLANEYKRPLMGFVAALLASVANSYYNRTMSGYYDTDMLVIVLPMFILFFMVRMILKKDFFSLIALPLFIGIYLWWYPSSYTLNVALIGLFLIYTLIFHRKEKIFYIAVILSSLTLSNIAWFYQSAIIVILFALFALEQKRLNFMIIGILGSATLIFLILSGGVDPILYQLKFYIFRNDESANLTQGFMYFNVNQTIQEVENVDFSEFMRRISGSEIVFLFSLFGFVWLLRKHKSMIMALPILVLGFLALKGGLRFTIYSVPVMALGFGFLLSEFKAILVKKYSQLTSNVCIVFATILTLAPVFIHIYNYKAPTVFSQNEASLLNQLKNIANREDYVVTWWDYGYPVRYYSDVKTLVDGGKHLGKDNFFPSFALSKDEQAAANMARLSVEYTEKSFYAPQNDILKSDILQAMMKDYNQSNVDLFLASLSKPDFKIDTPKTRDIYLYMPARMSLIFSTVASFSFINLDTGVLDKPFTFSTAYPLDVKNGEIYLSNGVVLSDDFRSFKIGDNVVSVNSIVEINSIKQGEYKITPIDDKAQFYIFYLKDSAIPYAQFILMDKTMFNSAYVQMFFLGNYDKNLFDLVINSRDAKVFKLKI | failed
17 | MLKKIDDSESLLDTAALAPLQRFVERECRLLDEQRFEEWLALYLPEATYWAPATRDNPDPDSQVSLFWDDKETMQTRVQRLLHPEIHSQIPASVTVRLTSNFRAAVAPGGEKDAYQVECRFIMVEDRLGSPRQQFAGTFNYLLVQNGAAFRIRQKRVDLTNCDHAFHTLTQPF | not failed
18 | MLKSKIKEEYVQMDQVDWKPFPAAFSTGGIRWKLLHVSPEMGSWTAIFDCPAGSSFAAHVHVGPGEYFLTKGKMDVRGGKAAGGDTAIAPGYGYESANARHDKTEFPVASEFYMSFLGPLTFVKPDGSPIAVIGWEDAQGAWAA | not failed
